Residue numbers refer to the chain shown, from its start.
B1: 55 (protein)
chain: LDNGLARTPTMGWLHWERFMCNLDCQEEPDSCISEKLFMEMAELMVSEGWKDAGYEYLCIDDCWMAPQRDSEGRLQADPQRFPHGIRQLANYVHSKGLKLGIYADVGNKTCAGFPGSFGYYDIDAQTFADWGVDLLKFDGCYCDSLENLADGYKHMSLALNRTGRSIVYSCEWPLYMWPFQKPNYTEIRQYCNHWRNFADIDDSWKSIKSILDWTSFNQERIVDVAGPGGWNDPDMLVIGNFGLSWNQQVTQMALWAIMAAPLFMSNDLRHISPQAKALLQDKDVIAINQDPLGKQGYQLRQGDNFEVWERPLSGLAWAVAMINRQEIGGPRSYTIAVASLGKGVACNPACVITQLLPVKRKLGIYEWTSRLRSHINPTGTVLLQLENTMQMSKDLLL
modifications: Synthetic Polypeptide sequence of Variant No. 55 of mature Human GLA
B2: 63 (protein)
chain: B1 chain with H155A, V352F, I365F
modifications: Synthetic Polypeptide sequence of Variant No. 63 of mature Human GLA
B3: 67 (protein)
chain: B1 chain with H155E, V352F, I365F
modifications: Synthetic Polypeptide sequence of Variant No. 67 of mature Human GLA
B4: 68 (protein)
chain: B1 chain with H84S, V352F, I365F
modifications: Synthetic Polypeptide sequence of Variant No. 68 of mature Human GLA
B5: 66 (protein)
chain: B1 chain with H155T, V352F, I365F
modifications: Synthetic Polypeptide sequence of Variant No. 66 of mature Human GLA
B6: 61 (protein)
chain: B1 chain with V352F, I365V
modifications: Synthetic Polypeptide sequence of Variant No. 61 of mature Human GLA
B7: 65 (protein)
chain: B1 chain with H155R, V352F, I365F
modifications: Synthetic Polypeptide sequence of Variant No. 65 of mature Human GLA
B8: 60 (protein)
chain: B1 chain with V352F, I365T
modifications: Synthetic Polypeptide sequence of Variant No. 60 of mature Human GLA
B9: 59 (protein)
chain: B1 chain with V352F, I365R
modifications: Synthetic Polypeptide sequence of Variant No. 59 of mature Human GLA
B10: 62 (protein)
chain: B1 chain with G303Q, V352F, I365F, R373V
modifications: Synthetic Polypeptide sequence of Variant No. 62 of mature Human GLA
B11: 56 (protein)
chain: B1 chain with V352F
modifications: Synthetic Polypeptide sequence of Variant No. 56 of mature Human GLA
B12: 64 (protein)
chain: B1 chain with H155L, V352F, I365F
modifications: Synthetic Polypeptide sequence of Variant No. 64 of mature Human GLA
B13: 57 (protein)
chain: B1 chain with V352F, I365K
modifications: Synthetic Polypeptide sequence of Variant No. 57 of mature Human GLA
B14: 58 (protein)
chain: B1 chain with V352F, I365L
modifications: Synthetic Polypeptide sequence of Variant No. 58 of mature Human GLA

Assays:
Format in all cases: biochemical
[1] = HTP-analysis of supernatants pretreated with base (MUGal hydrolysis); details: challenge at pH 7.1; activity of the variant/activity of WT GLA (SEQ ID NO: 5); yeast supernatant
How it was run: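 GLA variants were secreted by transformed INVSc1 yeast grown 66-84 h at 30° C. Supernatants were exposed to neutral-to-basic buffers (pH 7.0-9.7) at 37° C for 1-18 h, then assayed with MUGal in acidic citrate/McIlvaine buffer, with fluorescence read after quenching.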

[2] = HTP-analysis of supernatants pretreated with acid (MUGal hydrolysis); details: challenge at pH 4.2; activity of the variant/activity of WT GLA (SEQ ID NO: 5); yeast supernatant
How it was run: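 Supernatants from INVSc1 yeast secreting GLA variants were challenged at 37° C. for 1-3 h in McIlvaine buffer at pH 3.3-4.3. Residual activity was then measured on 4 mM MUGal substrate stock at pH 4.8 with citrate buffer pH 4.3, over 30-180 min at 37° C. Reactions were quenched with sodium carbonate and read by fluorescence (Ex 355/Em 448 nm).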

[3] = HTP-analysis of yeast culture supernatants, no challenge (MUGal hydrolysis); details: activity of the variant/activity of WT GLA (SEQ ID NO: 5), yeast supernatant
How it was run: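 Activity read as 4-methylumbelliferyl α-D-galactopyranoside hydrolysis: fluorescence (355/448 nm) after sodium carbonate stop, following 30-180 min at 37° C with 2 mM MUGal stock at pH 4.6–4.8. Enzyme source is unchallenged culture supernatant of INVSc1 yeast expressing GLA variants, grown 66-84 h at 30° C.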

Molecule	Relative Activity of GLA Variants After Challenge at pH 7.1 [1]	Relative Activity of GLA Variants After Challenge at pH 4.2 [2]	Relative Activity of GLA Variants After No Challenge (NC) [3]
B1	++ (++ = >1.5 to 2.5 relative activity over WT GLA (SEQ ID NO: 5))	+++ (+++ = >2.5 relative activity over WT GLA (SEQ ID NO: 5))	++ (++ = >1.5 to 2.5 relative activity over WT GLA (SEQ ID NO: 5))
B2	++ (++ = >1.5 to 2.5 relative activity over WT GLA (SEQ ID NO: 5))	+ (+ = 0.5 to 1.5 relative activity over WT GLA (SEQ ID NO: 5))	+ (+ = 0.5 to 1.5 relative activity over WT GLA (SEQ ID NO: 5))
B3	++ (++ = >1.5 to 2.5 relative activity over WT GLA (SEQ ID NO: 5))	+ (+ = 0.5 to 1.5 relative activity over WT GLA (SEQ ID NO: 5))	++ (++ = >1.5 to 2.5 relative activity over WT GLA (SEQ ID NO: 5))
B4	+ (+ = 0.5 to 1.5 relative activity over WT GLA (SEQ ID NO: 5))	++ (++ = >1.5 to 2.5 relative activity over WT GLA (SEQ ID NO: 5))	+ (+ = 0.5 to 1.5 relative activity over WT GLA (SEQ ID NO: 5))
B5	+ (+ = 0.5 to 1.5 relative activity over WT GLA (SEQ ID NO: 5))	+ (+ = 0.5 to 1.5 relative activity over WT GLA (SEQ ID NO: 5))	+ (+ = 0.5 to 1.5 relative activity over WT GLA (SEQ ID NO: 5))
B6	++ (++ = >1.5 to 2.5 relative activity over WT GLA (SEQ ID NO: 5))	++ (++ = >1.5 to 2.5 relative activity over WT GLA (SEQ ID NO: 5))	++ (++ = >1.5 to 2.5 relative activity over WT GLA (SEQ ID NO: 5))
B7	+ (+ = 0.5 to 1.5 relative activity over WT GLA (SEQ ID NO: 5))	+ (+ = 0.5 to 1.5 relative activity over WT GLA (SEQ ID NO: 5))	+ (+ = 0.5 to 1.5 relative activity over WT GLA (SEQ ID NO: 5))
B8	+ (+ = 0.5 to 1.5 relative activity over WT GLA (SEQ ID NO: 5))	+ (+ = 0.5 to 1.5 relative activity over WT GLA (SEQ ID NO: 5))	+ (+ = 0.5 to 1.5 relative activity over WT GLA (SEQ ID NO: 5))
B9	+ (+ = 0.5 to 1.5 relative activity over WT GLA (SEQ ID NO: 5))	+ (+ = 0.5 to 1.5 relative activity over WT GLA (SEQ ID NO: 5))	+ (+ = 0.5 to 1.5 relative activity over WT GLA (SEQ ID NO: 5))
B10	++ (++ = >1.5 to 2.5 relative activity over WT GLA (SEQ ID NO: 5))	+ (+ = 0.5 to 1.5 relative activity over WT GLA (SEQ ID NO: 5))	++ (++ = >1.5 to 2.5 relative activity over WT GLA (SEQ ID NO: 5))
B11	++ (++ = >1.5 to 2.5 relative activity over WT GLA (SEQ ID NO: 5))	++ (++ = >1.5 to 2.5 relative activity over WT GLA (SEQ ID NO: 5))	++ (++ = >1.5 to 2.5 relative activity over WT GLA (SEQ ID NO: 5))
B12	++ (++ = >1.5 to 2.5 relative activity over WT GLA (SEQ ID NO: 5))	+ (+ = 0.5 to 1.5 relative activity over WT GLA (SEQ ID NO: 5))	+ (+ = 0.5 to 1.5 relative activity over WT GLA (SEQ ID NO: 5))
B13	++ (++ = >1.5 to 2.5 relative activity over WT GLA (SEQ ID NO: 5))	++ (++ = >1.5 to 2.5 relative activity over WT GLA (SEQ ID NO: 5))	++ (++ = >1.5 to 2.5 relative activity over WT GLA (SEQ ID NO: 5))
B14	++ (++ = >1.5 to 2.5 relative activity over WT GLA (SEQ ID NO: 5))	++ (++ = >1.5 to 2.5 relative activity over WT GLA (SEQ ID NO: 5))	++ (++ = >1.5 to 2.5 relative activity over WT GLA (SEQ ID NO: 5))
